Experiments:
[1] = biological target: human zalpha11 receptor (human) (UniProt Q9HBE5); assay: cell-based or functional assay
[2] = biological target: human zalpha11 receptor (human) (UniProt Q9HBE5); assay: 125I-ligand competition on Raji cells, relative to non-specific competitor Interferon Gamma
[3] = biological target: human zalpha11 receptor (human) (UniProt Q9HBE5); assay: 125I-ligand competition on BaF3/zalpha11 cells, relative to no competitor
[4] = biological target: human zalpha11 receptor (human) (UniProt Q9HBE5); assay: 125I-ligand competition on BaF3/zalpha11 cells, relative to non-specific competitor Interferon Gamma
[5] = biological target: human zalpha11 receptor (human) (UniProt Q9HBE5); assay: 125I-ligand competition on Raji cells, relative to no competitor

human zalpha11 receptor (human), sequence (Q9HBE5 20-538 limits assumed): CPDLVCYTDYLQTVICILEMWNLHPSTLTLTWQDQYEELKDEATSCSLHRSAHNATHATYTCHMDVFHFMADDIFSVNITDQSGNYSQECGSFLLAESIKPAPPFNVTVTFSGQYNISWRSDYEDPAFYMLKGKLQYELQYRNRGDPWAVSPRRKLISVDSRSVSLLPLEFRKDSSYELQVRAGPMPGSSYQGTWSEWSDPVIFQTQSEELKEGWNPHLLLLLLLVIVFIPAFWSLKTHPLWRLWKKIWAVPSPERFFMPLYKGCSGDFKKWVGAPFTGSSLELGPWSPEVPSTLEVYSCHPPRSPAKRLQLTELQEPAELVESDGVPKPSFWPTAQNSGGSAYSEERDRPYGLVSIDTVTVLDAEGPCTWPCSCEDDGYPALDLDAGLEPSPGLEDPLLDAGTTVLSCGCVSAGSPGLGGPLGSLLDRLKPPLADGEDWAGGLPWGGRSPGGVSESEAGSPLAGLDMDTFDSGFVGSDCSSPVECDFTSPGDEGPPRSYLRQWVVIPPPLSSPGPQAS
human zalpha11 Ligand-saporin immunotoxin conjugate, sequence (Q9HBE4 32-162): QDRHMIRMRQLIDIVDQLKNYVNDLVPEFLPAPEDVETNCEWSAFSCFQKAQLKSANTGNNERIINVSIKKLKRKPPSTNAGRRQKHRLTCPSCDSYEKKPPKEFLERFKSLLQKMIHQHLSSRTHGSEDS

fold decrease in binding of 125I-labeled ligand at 250 fold molar excess [2] [fold] | fold decrease in binding of 125I-labeled ligand at 250 fold molar excess [3] [fold] | fold decrease in binding of 125I-labeled ligand at 250 fold molar excess [4] [fold] | fold decrease in binding of 125I-labeled ligand at 250 fold molar excess [5] [fold] | Substance | growth inhibition of IM-9 cells at the maximal conjugate concentration (250 ng/ml), Alamar Blue [1] [%] | growth inhibition of RAMOS cells at the maximal conjugate concentration (250 ng/ml), Alamar Blue [1] [%]
– | – | – | – | human zalpha11 Ligand-saporin immunotoxin conjugate | 79 | 65
3 | 3.06 | 2 | 3.7 | purified CHO recombinant human zalpha11 Ligand (huzalpha11L-CHO) (from UniProt Q9HBE4 32-162) | – | –
